Measured values taken from PMC2743687 (Nature structural & molecular biology, 2009).

Target: full-length Brr2, purified, Protein A tag cleaved off (S. cerevisiae, UniProt P32639 1-2163)
Experiment: native gel or EMSA

Chain of full-length Brr2, purified, Protein A tag cleaved off (P32639 whole entry): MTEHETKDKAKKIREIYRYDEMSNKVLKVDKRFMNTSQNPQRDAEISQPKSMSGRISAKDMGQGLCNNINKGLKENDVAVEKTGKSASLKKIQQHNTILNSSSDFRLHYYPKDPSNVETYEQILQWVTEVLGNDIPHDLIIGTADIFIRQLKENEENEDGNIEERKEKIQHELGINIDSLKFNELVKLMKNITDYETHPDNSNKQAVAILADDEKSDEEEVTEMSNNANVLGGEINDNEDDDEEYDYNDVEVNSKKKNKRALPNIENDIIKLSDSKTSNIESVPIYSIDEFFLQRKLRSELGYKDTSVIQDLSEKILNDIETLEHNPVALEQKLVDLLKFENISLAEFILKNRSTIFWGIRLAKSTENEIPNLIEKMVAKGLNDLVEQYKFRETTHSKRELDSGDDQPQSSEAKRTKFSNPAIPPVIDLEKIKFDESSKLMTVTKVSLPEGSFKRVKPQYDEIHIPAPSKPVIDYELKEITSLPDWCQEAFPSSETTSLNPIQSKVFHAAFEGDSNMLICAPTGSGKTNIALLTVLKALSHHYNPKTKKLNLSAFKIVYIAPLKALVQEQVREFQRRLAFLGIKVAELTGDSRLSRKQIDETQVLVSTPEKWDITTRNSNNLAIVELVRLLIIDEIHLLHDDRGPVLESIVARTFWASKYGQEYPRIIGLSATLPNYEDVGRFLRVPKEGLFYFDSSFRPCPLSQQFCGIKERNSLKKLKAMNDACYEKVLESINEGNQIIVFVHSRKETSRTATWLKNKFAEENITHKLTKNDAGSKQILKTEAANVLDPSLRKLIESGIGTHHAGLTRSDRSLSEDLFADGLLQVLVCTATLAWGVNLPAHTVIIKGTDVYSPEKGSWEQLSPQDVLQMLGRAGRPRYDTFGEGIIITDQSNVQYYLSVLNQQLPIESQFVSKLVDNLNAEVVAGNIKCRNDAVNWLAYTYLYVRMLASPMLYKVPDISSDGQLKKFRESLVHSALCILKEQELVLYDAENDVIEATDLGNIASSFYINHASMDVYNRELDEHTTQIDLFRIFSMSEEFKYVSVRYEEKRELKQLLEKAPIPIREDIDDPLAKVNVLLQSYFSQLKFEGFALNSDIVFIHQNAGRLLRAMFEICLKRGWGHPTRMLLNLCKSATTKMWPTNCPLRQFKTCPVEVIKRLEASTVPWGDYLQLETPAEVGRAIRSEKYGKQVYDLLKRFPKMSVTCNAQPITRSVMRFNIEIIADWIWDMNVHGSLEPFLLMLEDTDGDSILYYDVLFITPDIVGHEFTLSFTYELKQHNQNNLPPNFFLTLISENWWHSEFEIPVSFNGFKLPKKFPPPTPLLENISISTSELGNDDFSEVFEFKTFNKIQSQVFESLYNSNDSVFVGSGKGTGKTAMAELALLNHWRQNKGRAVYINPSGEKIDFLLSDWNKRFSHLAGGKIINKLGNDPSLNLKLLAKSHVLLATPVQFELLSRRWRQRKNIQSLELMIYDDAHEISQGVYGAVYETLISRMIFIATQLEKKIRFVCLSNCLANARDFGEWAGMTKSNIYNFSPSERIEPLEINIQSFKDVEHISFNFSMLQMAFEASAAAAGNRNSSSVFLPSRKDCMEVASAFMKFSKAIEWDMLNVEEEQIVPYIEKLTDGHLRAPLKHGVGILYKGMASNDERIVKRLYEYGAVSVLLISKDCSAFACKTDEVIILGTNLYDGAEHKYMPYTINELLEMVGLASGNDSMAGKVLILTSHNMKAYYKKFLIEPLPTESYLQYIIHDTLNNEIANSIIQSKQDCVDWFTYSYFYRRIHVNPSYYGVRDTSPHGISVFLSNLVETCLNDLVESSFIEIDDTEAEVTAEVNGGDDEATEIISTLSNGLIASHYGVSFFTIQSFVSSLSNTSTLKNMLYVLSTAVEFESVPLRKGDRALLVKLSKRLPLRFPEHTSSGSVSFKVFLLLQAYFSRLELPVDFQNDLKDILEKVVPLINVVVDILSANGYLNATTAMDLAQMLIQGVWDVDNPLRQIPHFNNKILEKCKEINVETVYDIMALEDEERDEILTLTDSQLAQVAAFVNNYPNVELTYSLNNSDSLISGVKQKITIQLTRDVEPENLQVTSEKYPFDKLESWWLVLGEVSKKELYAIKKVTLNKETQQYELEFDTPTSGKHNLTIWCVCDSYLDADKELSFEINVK

B1: C-terminal region of Prp8 (Prp8-CTR, residues 1822–2395) (domain or fragment)
chain: GLQIYQSSVQEPFLNSSNYAELFNNDIKLFVDDTNVYRVTVHKTFEGNVATKAINGCIFTLNPKTGHLFLKIIHTSVWAGQKRLSQLAKWKTAEEVSALVRSLPKEEQPKQIIVTRKAMLDPLEVHMLDFPNIAIRPTELRLPFSAAMSIDKLSDVVMKATEPQMVLFNIYDDWLDRISSYTAFSRLTLLLRALKTNEESAKMILLSDPTITIKSYHLWPSFTDEQWITIESQMRDLILTEYGRKYNVNISALTQTEIKDIILGQNIKAPSVKRQKMAELEAARSEKQNDEEAAGASTVMKTKTINAQGEEIVVVASADYESQTFSSKNEWRKSAIANTLLYLRLKNIYVSADDFVEEQNVYVLPKNLLKKFIEISDVKIQVAAFIYGMSAKDHPKVKEIKTVVLVPQLGHVGSVQISNIPDIGDLPDTEGLELLGWIHTQTEELKFMAASEVATHSKLFADKKRDCIDISIFSTPGSVSLSAYNLTDEGYQWGEENKDIMNVLSEGFEPTFSTHAQLLLSDRITGNFIIPSGNVWNYTFMGTAFNQEGDYNFKYGIPLEFYNEMHRPVHFLQF
B1: binds.
